Laboratory results: patent publication WO2021102332A1 (dated 2021)

T1: LRRC15 (leucine-rich repeat-containing protein 15) (human, UniProt Q8TF66 22-538, limits assumed)
T1 construct: The KD sentences say only 'LRRC15'; also called human LRRC15
T1 sequence (looked up): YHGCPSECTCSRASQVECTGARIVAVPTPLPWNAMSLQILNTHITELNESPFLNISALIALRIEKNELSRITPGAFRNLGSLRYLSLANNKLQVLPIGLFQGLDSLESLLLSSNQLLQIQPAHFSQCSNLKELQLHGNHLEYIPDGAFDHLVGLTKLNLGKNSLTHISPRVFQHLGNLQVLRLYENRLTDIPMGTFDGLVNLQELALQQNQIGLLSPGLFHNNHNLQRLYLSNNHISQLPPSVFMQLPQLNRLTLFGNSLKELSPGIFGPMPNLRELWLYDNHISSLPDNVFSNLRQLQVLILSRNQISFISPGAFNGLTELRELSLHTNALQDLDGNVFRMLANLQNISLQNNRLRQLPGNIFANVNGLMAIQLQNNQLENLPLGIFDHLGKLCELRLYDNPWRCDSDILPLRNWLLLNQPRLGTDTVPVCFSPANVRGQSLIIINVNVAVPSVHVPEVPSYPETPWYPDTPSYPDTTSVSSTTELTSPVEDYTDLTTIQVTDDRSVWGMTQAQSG


What was measured:
[1] = biological target: T1, LRRC15 (leucine-rich repeat-containing …); experiment: binding analysis (koff and/or KD) of mAb expressed in CHO cells; method not named
[2] = biological target: T1, LRRC15 (leucine-rich repeat-containing …); experiment: binding analysis (koff and/or KD); method not named

Row | Kd [1] | Kd [2] | Binder
1 | < 0.001 nM | – | hzJ66 VHv2 (M102L) / hzJ66 VLv1 (antibody, V domains shown, also called printed as heavy chain variant hzJ66 VLv2 with light chain hzJ66 VHv1) VH: QVQLVQSGAEVKKPGASVKVSCKASGYTFTNYWIGWVRQAPGQGLEWMGDIYPRSGYTNYNEKFKGRVTMTRDTSTSTVYMELSSLRSEDTAVYYCARSGGLYYFDYWGQGTTVTVSS VL: not shown
2 | – | < 0.001 nM | hzJ66 VHv1 / hzJ66 VLv1 (antibody, V domains shown, The KD sentence says only 'the parent humanized ... antibody'; also called parent humanized antibody (J66)) VH: QVQLVQSGAEVKKPGASVKVSCKASGYTFTNYWIGWVRQAPGQGLEWMGDIYPRSGYTNYNEKFKGRVTMTRDTSTSTVYMELSSLRSEDTAVYYCARSGGMYYFDYWGQGTTVTVSS VL: not shown
3 | < 0.001 nM | – | hzJ66 VHv2 (M102L) / hzJ66 VLv1.1 (N22S) (antibody, V domains shown, also called printed as heavy chain variant hzJ66 VLv2 with light chain hzJ66 v1.1) VH: QVQLVQSGAEVKKPGASVKVSCKASGYTFTNYWIGWVRQAPGQGLEWMGDIYPRSGYTNYNEKFKGRVTMTRDTSTSTVYMELSSLRSEDTAVYYCARSGGLYYFDYWGQGTTVTVSS VL: not shown
4 | 0.208 nM | – | hzK713 VHv1 / hzK713 VLv1 (antibody, V domains shown, Expressed in CHO cells; also called parent antibody comprising hzK713 VLv1 in combination with heavy chain hzK713 VHv1) VH: QVQLVQSGAEVKKPGASVKVSCKASGYTFTDYYMNWVRQAPGQRLEWMGRVSPSNGGTNYNQKFRGRVTITRDTSASTAYMELSSLRSEDTAVYYCARRGAGYSYYAMDYWGQGTTVTVSS VL: DIVMTQSPDSLAVSLGERATINCRASESVDSYGNSLMYWYQQKPGQPPKLLIYLASNLESGVPDRFSGSGSGTDFTLTISSLQAEDVAVYYCQQNNEDPLTFGGGTKVEIK
5 | 0.307 nM | – | hzK713 VHv2 (N55Q) / hzK713 VLv1 (antibody, V domains shown, The KD sentence prints 'hzJ48 VHv2-v4', read as hzK713 VHv2-v4; also called printed in the KD sentence as hzJ48 VHv2 with hzK713 VLv1) VH: QVQLVQSGAEVKKPGASVKVSCKASGYTFTDYYMNWVRQAPGQRLEWMGRVSPSQGGTNYNQKFRGRVTITRDTSASTAYMELSSLRSEDTAVYYCARRGAGYSYYAMDYWGQGTTVTVSS VL: DIVMTQSPDSLAVSLGERATINCRASESVDSYGNSLMYWYQQKPGQPPKLLIYLASNLESGVPDRFSGSGSGTDFTLTISSLQAEDVAVYYCQQNNEDPLTFGGGTKVEIK
6 | 0.212 nM | – | hzK713 VHv3 (N55S) / hzK713 VLv1 (antibody, V domains shown, The KD sentence prints 'hzJ48 VHv2-v4', read as hzK713 VHv2-v4; also called printed in the KD sentence as hzJ48 VHv3 with hzK713 VLv1) VH: QVQLVQSGAEVKKPGASVKVSCKASGYTFTDYYMNWVRQAPGQRLEWMGRVSPSSGGTNYNQKFRGRVTITRDTSASTAYMELSSLRSEDTAVYYCARRGAGYSYYAMDYWGQGTTVTVSS VL: DIVMTQSPDSLAVSLGERATINCRASESVDSYGNSLMYWYQQKPGQPPKLLIYLASNLESGVPDRFSGSGSGTDFTLTISSLQAEDVAVYYCQQNNEDPLTFGGGTKVEIK
7 | 0.334 nM | – | hzK713 VHv4 (G56A) / hzK713 VLv1 (antibody, V domains shown, The KD sentence prints 'hzJ48 VHv2-v4', read as hzK713 VHv2-v4; also called printed in the KD sentence as hzJ48 VHv4 with hzK713 VLv1) VH: QVQLVQSGAEVKKPGASVKVSCKASGYTFTDYYMNWVRQAPGQRLEWMGRVSPSNAGTNYNQKFRGRVTITRDTSASTAYMELSSLRSEDTAVYYCARRGAGYSYYAMDYWGQGTTVTVSS VL: DIVMTQSPDSLAVSLGERATINCRASESVDSYGNSLMYWYQQKPGQPPKLLIYLASNLESGVPDRFSGSGSGTDFTLTISSLQAEDVAVYYCQQNNEDPLTFGGGTKVEIK
8 | 1.7 nM | – | hzJ48 VHv3 / hzJ48 VLv1.1 (N92S) (antibody, V domains shown, Human IgG1 or IgG1null and human kappa constant regions) VH: QVQLVQSGAEVKKPGASVKVSCKASGYTFTDYYINWVRQAPGQGLEWMGWIYPGSGNTKYAQKFQGRVTMTRDTSTSTVYMELSSLRSEDTAVYYCARWGYGAYFTYWGQGTLVTVSS VL: DIQMTQSPSSLSASVGDRVTITCKASQNVGINVAWYQQKPGKAPKLLIYSASYRSSGVPSRFSGSGSGTDFTLTISSLQPEDFATYYCQQYSSFPYTFGGGTKVEIK
9 | 1.6 nM | – | hzJ48 VHv3 / hzJ48 VLv1.2 (N92Q) (antibody, V domains shown, Human IgG1 or IgG1null and human kappa constant regions) VH: QVQLVQSGAEVKKPGASVKVSCKASGYTFTDYYINWVRQAPGQGLEWMGWIYPGSGNTKYAQKFQGRVTMTRDTSTSTVYMELSSLRSEDTAVYYCARWGYGAYFTYWGQGTLVTVSS VL: DIQMTQSPSSLSASVGDRVTITCKASQNVGINVAWYQQKPGKAPKLLIYSASYRSSGVPSRFSGSGSGTDFTLTISSLQPEDFATYYCQQYQSFPYTFGGGTKVEIK
10 | 0.6 nM | – | hzJ48 VHv3 / hzJ48 VLv1.3 (S93A) (antibody, V domains shown, Human IgG1 or IgG1null and human kappa constant regions) VH: QVQLVQSGAEVKKPGASVKVSCKASGYTFTDYYINWVRQAPGQGLEWMGWIYPGSGNTKYAQKFQGRVTMTRDTSTSTVYMELSSLRSEDTAVYYCARWGYGAYFTYWGQGTLVTVSS VL: DIQMTQSPSSLSASVGDRVTITCKASQNVGINVAWYQQKPGKAPKLLIYSASYRSSGVPSRFSGSGSGTDFTLTISSLQPEDFATYYCQQYNAFPYTFGGGTKVEIK
11 | 0.34 nM | – | hzF36 VHv6.2 (D54Q) / hzF36 VLv1 (antibody, V domains shown) VH: QVQLVQSGAEVKKPGASVKVSCKASGYTFTSFVIHWVRQAPGQGLEWMGYIYNQGTKYNERFRGRATLTSDKSTSTVYMELSSLRSEDTAVYYCARDYYFDYWGQGTLVTVSS VL: DIVMTQSPDSLAVSLGERATINCRASESVDYYGISFMNWYQQKPGQPPKLLIYAASNQGSGVPDRFSGSGSGTDFTLTISSLQAEDVAVYYCQQSKEVPYTFGGGTKVEIK
12 | 0.33 nM | – | hzF36 VHv6 / hzF36 VLv1.1 (M4L) (antibody, V domains shown, also called parent heavy chain hzF36 VHv6 in combination with light chain hzF36 VLv1.1) VH: QVQLVQSGAEVKKPGASVKVSCKASGYTFTSFVIHWVRQAPGQGLEWMGYIYNDGTKYNERFRGRATLTSDKSTSTVYMELSSLRSEDTAVYYCARDYYFDYWGQGTLVTVSS VL: DIVLTQSPDSLAVSLGERATINCRASESVDYYGISFMNWYQQKPGQPPKLLIYAASNQGSGVPDRFSGSGSGTDFTLTISSLQAEDVAVYYCQQSKEVPYTFGGGTKVEIK
13 | 0.32 nM | – | hzF36 VHv6.4 (G55A) / hzF36 VLv1 (antibody, V domains shown) VH: QVQLVQSGAEVKKPGASVKVSCKASGYTFTSFVIHWVRQAPGQGLEWMGYIYNDATKYNERFRGRATLTSDKSTSTVYMELSSLRSEDTAVYYCARDYYFDYWGQGTLVTVSS VL: DIVMTQSPDSLAVSLGERATINCRASESVDYYGISFMNWYQQKPGQPPKLLIYAASNQGSGVPDRFSGSGSGTDFTLTISSLQAEDVAVYYCQQSKEVPYTFGGGTKVEIK
14 | – | < 0.001 nM | mAb J66 (mouse) (antibody, V domains shown, From hybridomas of immunized mice; also called parent mouse antibody; Bin A2) VH: QVQMKESGTELVRPGTSVKMSCKAAGYTFTNYWIGWVKQRPGHGPEWIGDIYPRSGYTNYNEKFKGKATLTADTSSSTAYMQLSSLTSEDSTIYFCARSGGMYYFDYWGQGTTLTVSS VL: not shown
